Source: patent publication US7608407B2, “Fluorescence polarization assay for determining histidine decarboxylase activity” (Boehringer Ingelheim Pharmaceuticals, Inc., priority 2004, dated 2009)

Substrate: N[C@@H](Cc1c[nH]cn1)C(=O)O
Assay: Km of HDC for its substrate histidine
Format: biochemical, human
Details: other: 54 Kd form, data not shown

B1: HDC (54 Kd form) (Homo sapiens; S148Q) (protein)
chain: MMEPEEYRERGREMVDYICQYLSTVRERRVTPDVQPGYLRAQLPESAPEDPDSWDSIFGDIERIIMPGVVHWQSPHMHAYYPALTSWPSLLGDMLADAINCLGFTWASSPACTELEMNVMDWLAKMLGLPEHFLHHHPSSQGGGVLQQTVSESTLIALLAARKNKILEMKTSEPDADESCLNARLVAYASDQAHSSVEKAGLISLVKMKFLPVDDNFSLRGEALQKAIEEDKQRGLVPVFVCATLGTTGVCAFDCLSELGPICAREGLWLHIDAAYAGTAFLCPEFRGFLKGIEYADSFTFNPSKWMMVHFDCTGFWVKDKYKLQQTFSVNPIYLRHANSGVATDFMHWQIPLSRRFRSVKLWFVIRSFGVKNLQAHVRHGTEMAKYFESLVRNDPSFEIPAKRHLGLVVFRLKGPNCLTENVLKEIAKAGRLFLIPATIQDKLIIRFTVTSQFTTRDDILRDWNLIRDAATLILSQ
  Km: 275 µM
